According to paper PMC2680719:

Target: m33 T cell receptor (high-affinity CDR3α mutant of 2C, displayed on 58−/− T cell hybridoma cells) (mouse)
Assay: flow cytometry on cells

percent of cells positive for tetramer: 84%
Substance: SIYRYYGL/K^b tetramer (biotinylated SIY/K^b monomers on streptavidin:phycoerythrin) (from UniProt P01887 21-119) (peptide-MHC)
